Data taken from patent publication US20100260668A1 (published 2010).

B1: DVD485 (bispecific antibody, human IgG1, kappa)
heavy: not shown
light: DIQMTQSPSSLSASVGDRVTITCRASQDVSTAVAWYQQKPGKAPKLLIYSASFLYSGVPSRFSGSGSGTDFTLTISSLQPEDFATTYYCQQSYTGTVTFGQGTKVEIKRTVAAPSVFIFPPDIQMTQSPSSLSASVGDRVTITCRASQVIRRSLAWYQQKPGKAPKLLIYAASNLASGVPSRFSGSGSGTDFTLTISSLQPEDFATYYCQQSNTSPLTFGQGTKVEIKRTVAAPSVFIFPPSDEQLKSGTASVVCLLNNFYPREAKVQWKVDNALQSGNSQESVTEQDSKDSTYSLSSTLTLSKADYEKHKVYACEVTHQGLSSPVTKSFNRGEC
notes: DVD-Ig; N-term; AB015 (DLL4), C-term; AB071 (VEGF); HC linker short, LC linker long; also called DVD485H; DVD485L
B2: DVD468 (bispecific antibody, human IgG1, kappa)
heavy: not shown
light: DIQMTQSPSSLSASVGDRVTITCRASQVIRRSLAWYQQKPGKAPKLLIYAASNLASGVPSRFSGSGSGTDFTLTISSLQPEDFATYYCQQSNTSPLTFGQGTKVEIKRTVAAPDIQMTQSPSSLSASVGDRVTITCRASQDVSTAVAWYQQKPGKAPKLLIYSASFLYSGVPSRFSGSGSGTDFTLTISSLQPEDFATTYYCQQSYTGTVTFGQGTKVEIKRTVAAPSVFIFPPSDEQLKSGTASVVCLLNNFYPREAKVQWKVDNALQSGNSQESVTEQDSKDSTYSLSSTLTLSKADYEKHKVYACEVTHQGLSSPVTKSFNRGEC
notes: DVD-Ig; N-term; AB071 (VEGF), C-term; AB015 (DLL4); HC linker short, LC linker short; also called DVD468H; DVD468L
B3: DVD497 (bispecific antibody, human IgG1, kappa)
heavy: not shown
light: DIQMTQSSSYLSVSLGGRVTITCKASDHINNWLAWYQQKPGNAPRLLISGATSLETGVPSRFSGSGSGKDYTLSITSLQTEDVATYYCQQYWSIPLTFGAGTKLELKRTVAAPSVFIFPPDIQMTQSPSSLSASVGDRVTITCRASQVIRRSLAWYQQKPGKAPKLLIYAASNLASGVPSRFSGSGSGTDFTLTISSLQPEDFATYYCQQSNTSPLTFGQGTKVEIKRTVAAPSVFIFPPSDEQLKSGTASVVCLLNNFYPREAKVQWKVDNALQSGNSQESVTEQDSKDSTYSLSSTLTLSKADYEKHKVYACEVTHQGLSSPVTKSFNRGEC
notes: DVD-Ig; N-term; AB072 (DLL4), C-term; AB071 (VEGF); HC linker long, LC linker long; also called DVD497H; DVD497L
B4: DVD509 (bispecific antibody, human IgG1, kappa)
heavy: not shown
light: B3 light
notes: DVD-Ig; N-term; AB072 (DLL4), C-term; AB071 (VEGF); HC linker short, LC linker long; also called DVD509H; DVD509L
B5: DVD479 (bispecific antibody, human IgG1, kappa)
heavy: not shown
light: DIQMTQSPSSLSASVGDRVTITCRASQDVSTAVAWYQQKPGKAPKLLIYSASFLYSGVPSRFSGSGSGTDFTLTISSLQPEDFATTYYCQQSYTGTVTFGQGTKVEIKRTVAAPDIQMTQSPSSLSASVGDRVTITCRASQVIRRSLAWYQQKPGKAPKLLIYAASNLASGVPSRFSGSGSGTDFTLTISSLQPEDFATYYCQQSNTSPLTFGQGTKVEIKRTVAAPSVFIFPPSDEQLKSGTASVVCLLNNFYPREAKVQWKVDNALQSGNSQESVTEQDSKDSTYSLSSTLTLSKADYEKHKVYACEVTHQGLSSPVTKSFNRGEC
notes: DVD-Ig; N-term; AB015 (DLL4), C-term; AB071 (VEGF); HC linker long, LC linker short; also called DVD479H; DVD479L
B6: DVD521 (bispecific antibody, human IgG1, kappa, lambda, L234A L235A)
heavy: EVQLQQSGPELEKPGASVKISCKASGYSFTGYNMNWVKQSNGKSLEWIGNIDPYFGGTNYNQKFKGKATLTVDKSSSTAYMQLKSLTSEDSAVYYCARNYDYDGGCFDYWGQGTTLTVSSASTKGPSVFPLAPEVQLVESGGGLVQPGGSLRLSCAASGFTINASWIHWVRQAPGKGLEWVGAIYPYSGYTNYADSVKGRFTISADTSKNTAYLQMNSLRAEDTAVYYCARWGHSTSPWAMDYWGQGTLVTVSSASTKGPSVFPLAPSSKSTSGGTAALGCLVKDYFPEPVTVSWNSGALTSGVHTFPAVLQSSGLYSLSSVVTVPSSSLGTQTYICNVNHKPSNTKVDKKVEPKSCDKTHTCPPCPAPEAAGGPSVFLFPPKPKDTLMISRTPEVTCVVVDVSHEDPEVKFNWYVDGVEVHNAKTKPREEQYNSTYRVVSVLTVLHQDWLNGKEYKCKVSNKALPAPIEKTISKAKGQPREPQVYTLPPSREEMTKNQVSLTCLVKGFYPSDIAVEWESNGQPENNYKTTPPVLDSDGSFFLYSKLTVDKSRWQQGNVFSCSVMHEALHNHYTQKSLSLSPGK
light: QAVVTQESALTTSPGETVTLTCRSSTGAVTTSNYANWVQEKPDHLFTGLIGGTNNRAPGVPARFSGSLIGDKAALTITGAQTEDEAIYFCALWYSNHWVFGGGTKLTVLGQPKAAPSVTLFPPDIQMTQSPSSLSASVGDRVTITCRASQVIRRSLAWYQQKPGKAPKLLIYAASNLASGVPSRFSGSGSGTDFTLTISSLQPEDFATYYCQQSNTSPLTFGQGTKVEIKRTVAAPSVFIFPPSDEQLKSGTASVVCLLNNFYPREAKVQWKVDNALQSGNSQESVTEQDSKDSTYSLSSTLTLSKADYEKHKVYACEVTHQGLSSPVTKSFNRGEC
notes: DVD-Ig; N-term; AB073 (DLL4), C-term; AB071 (VEGF); HC linker long, LC linker long; also called DVD521H; DVD521L
B7: DVD533 (bispecific antibody, human IgG1, kappa, lambda, L234A L235A)
heavy: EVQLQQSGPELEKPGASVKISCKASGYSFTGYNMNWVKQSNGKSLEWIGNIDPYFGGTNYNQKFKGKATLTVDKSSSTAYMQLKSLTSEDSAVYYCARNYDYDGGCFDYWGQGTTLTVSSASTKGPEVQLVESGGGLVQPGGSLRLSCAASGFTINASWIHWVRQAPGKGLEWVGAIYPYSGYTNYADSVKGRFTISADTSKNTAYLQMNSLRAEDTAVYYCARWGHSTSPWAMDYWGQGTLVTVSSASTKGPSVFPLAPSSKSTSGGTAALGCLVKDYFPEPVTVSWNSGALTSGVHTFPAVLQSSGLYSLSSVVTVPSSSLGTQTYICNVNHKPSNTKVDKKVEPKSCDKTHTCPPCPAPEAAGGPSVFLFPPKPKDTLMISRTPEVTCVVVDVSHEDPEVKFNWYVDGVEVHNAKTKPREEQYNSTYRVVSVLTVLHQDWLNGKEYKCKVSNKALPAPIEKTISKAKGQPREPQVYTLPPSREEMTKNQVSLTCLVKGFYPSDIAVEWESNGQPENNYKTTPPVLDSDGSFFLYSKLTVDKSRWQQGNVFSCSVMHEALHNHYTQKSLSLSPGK
light: B6 light
notes: DVD-Ig; N-term; AB073 (DLL4), C-term; AB071 (VEGF); HC linker short, LC linker long; also called DVD533H; DVD533L
B8: DVD515 (bispecific antibody, human IgG1, kappa)
heavy: not shown
light: QAVVTQESALTTSPGETVTLTCRSSTGAVTTSNYANWVQEKPDHLFTGLIGGTNNRAPGVPARFSGSLIGDKAALTITGAQTEDEAIYFCALWYSNHWVFGGGTKLTVLGQPKAAPDIQMTQSPSSLSASVGDRVTITCRASQVIRRSLAWYQQKPGKAPKLLIYAASNLASGVPSRFSGSGSGTDFTLTISSLQPEDFATYYCQQSNTSPLTFGQGTKVEIKRTVAAPSVFIFPPSDEQLKSGTASVVCLLNNFYPREAKVQWKVDNALQSGNSQESVTEQDSKDSTYSLSSTLTLSKADYEKHKVYACEVTHQGLSSPVTKSFNRGEC
notes: DVD-Ig; N-term; AB073 (DLL4), C-term; AB071 (VEGF); HC linker short, LC linker short; also called DVD515H; DVD515L
B9: DVD527 (bispecific antibody, human IgG1, kappa)
heavy: not shown
light: B8 light
notes: DVD-Ig; N-term; AB073 (DLL4), C-term; AB071 (VEGF); HC linker long, LC linker short; also called DVD527H; DVD527L
B10: DVD451 (bispecific antibody, human IgG1, kappa, L234A L235A)
heavy: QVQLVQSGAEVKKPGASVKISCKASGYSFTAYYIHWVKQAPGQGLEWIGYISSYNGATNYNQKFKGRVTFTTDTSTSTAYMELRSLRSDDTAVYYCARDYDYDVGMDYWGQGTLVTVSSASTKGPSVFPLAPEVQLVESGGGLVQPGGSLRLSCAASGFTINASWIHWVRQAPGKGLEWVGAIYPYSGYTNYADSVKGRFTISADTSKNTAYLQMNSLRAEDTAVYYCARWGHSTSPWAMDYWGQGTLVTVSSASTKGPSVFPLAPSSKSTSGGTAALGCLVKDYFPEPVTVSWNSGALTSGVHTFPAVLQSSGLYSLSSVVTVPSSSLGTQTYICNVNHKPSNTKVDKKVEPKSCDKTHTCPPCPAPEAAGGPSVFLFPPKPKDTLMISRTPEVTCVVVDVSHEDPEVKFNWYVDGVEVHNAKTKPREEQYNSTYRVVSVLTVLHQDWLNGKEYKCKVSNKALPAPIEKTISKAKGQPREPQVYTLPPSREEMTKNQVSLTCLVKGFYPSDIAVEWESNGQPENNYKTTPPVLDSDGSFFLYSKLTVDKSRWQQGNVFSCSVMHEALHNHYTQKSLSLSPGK
light: DIVMTQSPDSLAVSLGERATISCRASESVDNYGISFMKWFQQKPGQPPKLLIYAASNQGSGVPDRFSGSGSGTDFTLTISSLQAEDVAVYYCQQSKEVPWTFGGGTKVEIKRTVAAPSVFIFPPDIQMTQSPSSLSASVGDRVTITCRASQVIRRSLAWYQQKPGKAPKLLIYAASNLASGVPSRFSGSGSGTDFTLTISSLQPEDFATYYCQQSNTSPLTFGQGTKVEIKRTVAAPSVFIFPPSDEQLKSGTASVVCLLNNFYPREAKVQWKVDNALQSGNSQESVTEQDSKDSTYSLSSTLTLSKADYEKHKVYACEVTHQGLSSPVTKSFNRGEC
notes: DVD-Ig; N-term; AB069 (DLL4), C-term; AB071 (VEGF); HC linker long, LC linker long; also called DVD451H; DVD451L
B11: DVD463 (bispecific antibody, human IgG1, kappa)
heavy: not shown
light: B10 light
notes: DVD-Ig; N-term; AB069 (DLL4), C-term; AB071 (VEGF); HC linker short, LC linker long; also called DVD463H; DVD463L
B12: DVD445 (bispecific antibody, human IgG1, kappa)
heavy: not shown
light: DIVMTQSPDSLAVSLGERATISCRASESVDNYGISFMKWFQQKPGQPPKLLIYAASNQGSGVPDRFSGSGSGTDFTLTISSLQAEDVAVYYCQQSKEVPWTFGGGTKVEIKRTVAAPDIQMTQSPSSLSASVGDRVTITCRASQVIRRSLAWYQQKPGKAPKLLIYAASNLASGVPSRFSGSGSGTDFTLTISSLQPEDFATYYCQQSNTSPLTFGQGTKVEIKRTVAAPSVFIFPPSDEQLKSGTASVVCLLNNFYPREAKVQWKVDNALQSGNSQESVTEQDSKDSTYSLSSTLTLSKADYEKHKVYACEVTHQGLSSPVTKSFNRGEC
notes: DVD-Ig; N-term; AB069 (DLL4), C-term; AB071 (VEGF); HC linker short, LC linker short; also called DVD445H; DVD445L
B13: DVD457 (bispecific antibody, human IgG1, kappa, L234A L235A)
heavy: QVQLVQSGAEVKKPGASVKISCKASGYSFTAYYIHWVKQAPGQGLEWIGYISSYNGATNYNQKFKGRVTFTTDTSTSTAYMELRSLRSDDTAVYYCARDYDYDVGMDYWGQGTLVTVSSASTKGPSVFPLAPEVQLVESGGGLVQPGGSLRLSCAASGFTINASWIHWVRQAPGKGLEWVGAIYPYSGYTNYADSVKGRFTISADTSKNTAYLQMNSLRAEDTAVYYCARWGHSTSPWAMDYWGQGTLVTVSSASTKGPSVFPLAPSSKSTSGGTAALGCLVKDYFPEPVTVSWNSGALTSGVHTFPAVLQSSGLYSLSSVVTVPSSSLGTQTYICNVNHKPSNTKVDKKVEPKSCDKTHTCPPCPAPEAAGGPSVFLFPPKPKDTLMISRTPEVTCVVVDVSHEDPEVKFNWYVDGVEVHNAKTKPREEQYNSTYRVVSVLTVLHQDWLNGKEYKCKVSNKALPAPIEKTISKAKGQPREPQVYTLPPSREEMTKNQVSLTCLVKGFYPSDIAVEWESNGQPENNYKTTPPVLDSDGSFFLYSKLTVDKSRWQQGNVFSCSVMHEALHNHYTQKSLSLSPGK
light: B12 light
notes: DVD-Ig; N-term; AB069 (DLL4), C-term; AB071 (VEGF); HC linker long, LC linker short; also called DVD457H; DVD457L
B14: DVD491 (bispecific antibody, human IgG1, kappa)
heavy: not shown
light: DIQMTQSSSYLSVSLGGRVTITCKASDHINNWLAWYQQKPGNAPRLLISGATSLETGVPSRFSGSGSGKDYTLSITSLQTEDVATYYCQQYWSIPLTFGAGTKLELKRTVAAPDIQMTQSPSSLSASVGDRVTITCRASQVIRRSLAWYQQKPGKAPKLLIYAASNLASGVPSRFSGSGSGTDFTLTISSLQPEDFATYYCQQSNTSPLTFGQGTKVEIKRTVAAPSVFIFPPSDEQLKSGTASVVCLLNNFYPREAKVQWKVDNALQSGNSQESVTEQDSKDSTYSLSSTLTLSKADYEKHKVYACEVTHQGLSSPVTKSFNRGEC
notes: DVD-Ig; N-term; AB072 (DLL4), C-term; AB071 (VEGF); HC linker short, LC linker short; also called DVD491H; DVD491L
B15: DVD503 (bispecific antibody, human IgG1, kappa)
heavy: not shown
light: B14 light
notes: DVD-Ig; N-term; AB072 (DLL4), C-term; AB071 (VEGF); HC linker long, LC linker short; also called DVD503H; DVD503L

Target: T1, VEGF (UniProt P15692-4 27-191)
T1 construct: Bought reagent; also called vascular endothelial growth factor
T1 sequence (P15692 other isoform, or with tags, fused parts or gaps limits assumed): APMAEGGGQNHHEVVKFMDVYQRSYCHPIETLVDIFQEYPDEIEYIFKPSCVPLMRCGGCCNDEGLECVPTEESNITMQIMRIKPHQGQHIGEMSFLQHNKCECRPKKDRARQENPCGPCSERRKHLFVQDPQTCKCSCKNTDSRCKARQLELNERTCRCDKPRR
Assay: BIACORE SPR

Kd [nM] | koff [s⁻¹] | kon [M⁻¹ s⁻¹] | Binder
0.372 |  |  | B1
0.00148 | 1.74e-07 | 118000 | B2
0.668 | 8.37e-05 | 125000 | B3
0.0613 | 7.83e-06 | 128000 | B4
0.86 | 0.000257 | 299000 | B5
0.882 | 0.000588 | 666000 | B6
0.825 | 0.000501 | 608000 | B7
1.45 | 0.000585 | 405000 | B8
0.842 | 0.000446 | 529000 | B9
0.0115 | 1.06e-06 | 92200 | B10
0.771 | 0.000479 | 621000 | B11
0.272 | 1.8 | 6.64e+09 | B12
0.307 | 5.43e-05 | 177000 | B13
0.72 | 0.000245 | 340000 | B14
0.466 | 0.000105 | 226000 | B15
